Results published in US20130309246A1.

Target: Notch (Notch pathway receptors) in MC3T3-E1 murine osteoblasts (mouse)
Test: cell-based or functional assay

Notch activity (firefly luciferase Notch reporter in MC3T3-E1 osteoblasts cocultured with JAG1 OE tumor cells): 6 fold
Substance: human JAGGED1 overexpressed in SCP28 breast cancer cells (JAG1 OE tumor cells) (from UniProt P78504 34-1218) (ligand)
